This note sets out measurements from patent publication US20050220762A1.

The target in test [1] is human growth hormone receptor on IM-9 cells (human) (UniProt P10912). Description: cell-based or functional assay.
The target of test [2] is T1, full length rat GHR (L43R) on BAF3 cells (rat) (UniProt P16310).
T1 sequence (looked up): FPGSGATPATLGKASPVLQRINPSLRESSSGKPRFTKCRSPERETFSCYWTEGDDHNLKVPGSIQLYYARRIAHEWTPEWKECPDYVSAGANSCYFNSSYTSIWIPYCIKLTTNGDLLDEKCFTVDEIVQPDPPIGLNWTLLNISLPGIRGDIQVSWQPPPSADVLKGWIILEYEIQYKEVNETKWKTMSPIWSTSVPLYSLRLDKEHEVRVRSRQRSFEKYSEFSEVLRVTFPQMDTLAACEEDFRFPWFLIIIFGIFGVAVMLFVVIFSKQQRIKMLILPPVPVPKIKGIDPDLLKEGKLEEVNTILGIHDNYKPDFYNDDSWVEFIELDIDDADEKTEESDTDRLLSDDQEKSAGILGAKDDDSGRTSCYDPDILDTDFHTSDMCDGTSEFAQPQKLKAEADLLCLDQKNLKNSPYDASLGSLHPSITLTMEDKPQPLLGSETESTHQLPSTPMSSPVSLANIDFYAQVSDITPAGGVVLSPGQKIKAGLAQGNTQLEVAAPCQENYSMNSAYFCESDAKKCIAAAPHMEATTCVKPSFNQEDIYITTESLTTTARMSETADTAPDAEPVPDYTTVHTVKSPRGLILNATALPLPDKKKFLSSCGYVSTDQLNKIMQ
Description: cell-based or functional assay.

UniProt P10912, sequence (P10912 19-638): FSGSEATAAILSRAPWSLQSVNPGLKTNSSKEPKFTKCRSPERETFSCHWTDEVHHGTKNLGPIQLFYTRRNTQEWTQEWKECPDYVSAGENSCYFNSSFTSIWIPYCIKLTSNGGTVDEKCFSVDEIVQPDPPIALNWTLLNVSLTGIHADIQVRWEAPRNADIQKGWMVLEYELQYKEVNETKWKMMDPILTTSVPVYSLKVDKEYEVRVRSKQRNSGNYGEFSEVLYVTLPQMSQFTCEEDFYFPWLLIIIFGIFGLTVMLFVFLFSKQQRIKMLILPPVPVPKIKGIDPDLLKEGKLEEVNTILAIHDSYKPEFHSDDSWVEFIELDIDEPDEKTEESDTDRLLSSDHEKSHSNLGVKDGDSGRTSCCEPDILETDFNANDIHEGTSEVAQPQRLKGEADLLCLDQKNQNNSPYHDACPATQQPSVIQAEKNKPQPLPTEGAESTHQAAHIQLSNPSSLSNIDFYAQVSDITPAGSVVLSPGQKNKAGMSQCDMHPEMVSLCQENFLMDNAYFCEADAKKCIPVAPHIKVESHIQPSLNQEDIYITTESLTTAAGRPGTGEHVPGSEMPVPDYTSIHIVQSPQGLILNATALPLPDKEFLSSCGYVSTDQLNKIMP

Substance “hGH R134pAF linked to 20 kDa PEG (from UniProt P01241 27-217) (ligand)” returned a pSTAT5 EC50 (nM), IM-9; WHO hGH expressed as unity in test [1] of 5.3 nM.
Consider “hGH Y35pAF linked to 40 kDa PEG (from UniProt P01241 27-217) (ligand)”, for which the pSTAT5 EC50 (nM), IM-9; WHO hGH expressed as unity in test [1] turned out to be 53.3 nM. For the same substance, the Proliferation EC50 (nM), BrdU, rat GHR (L43R) BAF3 cells; WHO hGH expressed as unity in test [2] turned out to be 24 nM.
The matching figures for “hGH K145pAF linked to 30 kDa PEG (from UniProt P01241 27-217) (ligand)”: 20.6 nM and 5.3 nM.
As for “hGH G131pAF linked to 30 kDa PEG (from UniProt P01241 27-217) (ligand)”, the pSTAT5 EC50 (nM), IM-9; WHO hGH expressed as unity in test [1] was 23.8 nM. The Proliferation EC50 (nM), BrdU, rat GHR (L43R) BAF3 cells; WHO hGH expressed as unity in test [2] was determined as 4.6 nM.
The matching figures for “hGH Y143pAF linked to 30 kDa PEG (from UniProt P01241 27-217) (ligand)”: 12.3 nM and 6.6 nM.
